This is an account of results in patent US20070128190A1 (GLENMARK PHARMACEUTICALS S A, published 2007).

The target of assay [1] is human α2 integrin with endogenous hamster β1 on CHO cells (human; hamster). The assay can be described thus: cell-based or functional assay.
Assay [2] addresses human α2β1 integrin on human cells (platelets, leukocytes, HT1080) (human, UniProt P17301 30-1181; P05556 21-798). The assay can be described thus: cell-based or functional assay.
Assay [3] deals with T1, human platelet α2β1 integrin (immobilized on microtiter plates) (human, UniProt P17301 30-1181; P05556 21-798).
T1 construct: plates custom-coated with human platelet α2β1 by GTI Inc; also called immobilized α2β1 integrin; α2β1-coated plates
Briefly: competition with Eu-humanized TMC-2206 on α2β1-coated plates. From the text:
The inhibition curves were fitted with the “one site competition” model using Prism software (GraphPad, Inc.) to obtain IC₅₀ values and to calculate the Kᵢ using the equation of Cheng and Prusoff (1973) and the respective values for KD from above.
The cloning of the human, rhesus macaque, rat, and mouse α2 I domains were described in Example 12. Cynomolgus and additional rhesus monkey α2 I domains were cloned from cDNA derived from total RNA extracted from skin tissue (MediCorp, Inc., Montreal, QC).

The target in assay [4] is T1, human platelet α2β1 integrin …. The assay can be described thus: competition with Eu-TMC-2206 on human platelet α2β1-coated plate. Here is the method:
Exemplary IgG1 antibodies have a hVH 14.0 γ heavy chain (SEQ ID NO:181) or a hVH12.0 γ1 heavy chain (SEQ ID NO:182) and a hVL10.0Q light chain (SEQ ID NO:178). Exemplary IgG4 antibodies have a hVH14.0 γ4 heavy chain (SEQ ID NO:174) or a hVH12.0 γ4 heavy chain (SEQ ID NO:176) and a hVL 10.0Q light chain (SEQ ID NO:178). Purified antibodies were tested in the competition assay to compare potency by Kᵢ values as well as in the cell adhesion to collagen assay, where potency is measured as EC₅₀ values.

Assay [5] has as its target T2, GST-human α2 I domain fusion protein (human, UniProt P17301 153-368).
T2 construct: the reverse primer ends at ...SIEGTV; also called GST-α2 I domain; hα2I; not shown: glutathione S-transferase tag encoded by vector pGEX-2TK
T2 sequence: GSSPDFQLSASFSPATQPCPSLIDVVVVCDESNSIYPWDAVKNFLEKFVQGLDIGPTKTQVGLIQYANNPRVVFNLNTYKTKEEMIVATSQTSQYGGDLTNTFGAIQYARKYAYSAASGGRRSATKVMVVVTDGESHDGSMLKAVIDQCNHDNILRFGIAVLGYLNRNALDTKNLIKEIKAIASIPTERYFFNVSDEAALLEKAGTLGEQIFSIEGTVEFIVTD
The assay can be described thus: SPR (Biacore 2000), antibody captured, GST-α2 I domain in solution. (In general: In SPR one partner is held on a chip, and binding of the other changes the refractive index at the surface.)

Assay [6] concerns the target T1, human platelet α2β1 integrin …. Briefly: competition with Eu-humanized TMC-2206 on human platelet α2β1-coated plate. Here is the method:
The MAb/bicarbonate mixture (0.250 mL) was gently mixed into a vial containing 0.2 mg N¹-(p-isothiocyanatobenzyl)-diethylenetriamine-N¹,N²,N³,N³-tetraacetic acid chelated with Eu³⁺ (Eu-N1-ITC; Perkin Elmer Life Sciences) and incubated overnight at 4° C. without stirring. The labeled antibody mixture was applied to a PD-10 column (GE Biosciences, Piscataway, N.J.) pre-equilibrated with Running Buffer (50 mM Tris, pH 7.4 and 138 mM NaCl). Fractions (0.5 mL) were collected and assayed for total protein (Bradford reagent; Bio-Rad Laboratories, Hercules, Calif.) using a SpectraMax 384 absorbance plate reader and for europium after 1:10.000 dilution in DELFIA Enhancement Solution (Perkin-Elmer) by time-resolved fluorescence (TRF) using a Victor2 multi-label plate reader (Perkin Elmer). The fractions that were positive for both protein and europium label were pooled, applied to a new PD-10 column, and samples collected and assayed for total protein and for europium content by TRF calibrated against a europium standard solution (Perkin-Elmer) to calculate the fluor : protein ratio. […] The plate was shaken (Titer Plate Shaker, speed setting of 5, 5 minutes at room temperature) and TRF intensities were read using the Victor2 multi-label plate reader. The KD values were calculated by Scatchard analyses.

The target is the same in assay [7]. The assay can be described thus: equilibrium binding of Eu-labelled antibody to human platelet α2β1-coated plate, Scatchard. As for the experimental part: Wells in a 96-well microtiter plate were coated with platelet α2β1-integrin (custom-coated with human platelet α2β1 by GTI Inc., WI) and then blocked with nonfat milk. […] After concentration in prewashed MicroSep concentrators [30-kDa cutoff; Pall Life Sciences at 9500 rpm (7000×g) in a JA-20 rotor (Beckman Instruments, Inc.] for 20 minutes at 4° C.), the antibody was adjusted to 4.0 mg/mL with PBS, 100 mM NaHCO₃, pH 9.3. The MAb/bicarbonate mixture (0.250 mL) was gently mixed into a vial containing 0.2 mg N¹-(p-isothiocyanatobenzyl)-diethylenetriamine-N¹,N²,N³,N³-tetraacetic acid chelated with Eu³⁺ (Eu-N1-ITC; Perkin Elmer Life Sciences) and incubated overnight at 4° C. without stirring. The labeled antibody mixture was applied to a PD-10 column (GE Biosciences, Piscataway, N.J.) pre-equilibrated with Running Buffer (50 mM Tris, pH 7.4 and 138 mM NaCl). Fractions (0.5 mL) were collected and assayed for total protein (Bradford reagent; Bio-Rad Laboratories, Hercules, Calif.) using a SpectraMax 384 absorbance plate reader and for europium after 1:10.000 dilution in DELFIA Enhancement Solution (Perkin-Elmer) by time-resolved fluorescence (TRF) using a Victor2 multi-label plate reader (Perkin Elmer). […]

B1: TMC-2206 (antibody, mouse IgG1, V domains shown)
VH: QVQLKESGPGLVAPSQSLSITCTVSGFSLTNYGIHWVRQPPGKGLEWLGVIWARGFTNYNSALMSRLIITKDNSQSQVFLKMNSLQPDDSATYFCARANDGVYYAMDYWGQGTSVTVSS
VL: QFVLTQSPAFLSASPGEKVTMTCSANSSVNYIHWYQQKSGTSPKKWIYDTSKLASGVPVRFSGSGSGTSYSLTISSMETEDAATYYCQQWTTNPLTFGAGTRVELK
notes: murine IgG1/κ secreted by hybridoma BHA2.1; labelled with Eu-N1-ITC where used as tracer; also called BHA2.1
For the molecule B1, the “EC50, inhibition of adhesion of CHO-α2 cells to collagen Type I” value in assay [1] is 1.2 nM. In addition, in assay [1], the “EC50, inhibition of cell adhesion to collagen” value is 1.5 nM. The “EC50 (nm), human platelets on human placenta Type I collagen (n = 1)” value in assay [2] came out at 8.44 nM. Moreover, the values for the Ki in assay [3], in assay [4] and in assay [6] were 0.14 nM, 0.22 nM and 0.21 nM, respectively. For the same molecule, the Kd in assay [5] turned out to be 2.9 nM; in assay [7] it was 0.72 nM. Also, the dissociation rate constant (koff) in assay [5] stood at 0.0011 s⁻¹. Also, in assay [5], the kon stood at 380000 M⁻¹ s⁻¹.

B2: Humanized TMC-2206 (hIgG4/κ VH12.0/VL10.0Q) (antibody)
heavy: not shown
light: DFVMTQSPAFLSVTPGEKVTITCSAQSSVNYIHWYQQKPDQAPKKLIYDTSKLASGVPSRFSGSGSGTDYTFTISSLEAEDAATYYCQQWTTNPLTFGQGTKVEIKRTVAAPSVFIFPPSDEQLKSGTASVVCLLNNFYPREAKVQWKVDNALQSGNSQESVTEQDSKDSTYSLSSTLTLSKADYEKHKVYACEVTHQGLSSPVTKSFNRGEC
notes: labelled with Eu or Alexa-488 in some assays
On to B2, for which the “EC50 (nm), human platelets on human placenta Type I collagen (n = 1)” value in assay [2] was 13.1 nM. The Ki in assay [3] is 0.34 nM; in assay [4] it was 0.27 nM; in assay [6], 0.41 nM. In addition, the dissociation constant (Kd) is 2.3 nM in assay [5] and 1.29 nM in assay [7]. Besides, in assay [5], the koff came out at 0.00082 s⁻¹. For the same molecule, the on-rate (kon) in assay [5] was found to be 350000 M⁻¹ s⁻¹.

The term Ki denotes a dissociation constant, usually derived from enzyme kinetics or from competition with a known ligand. A word on the Kd: it is a measure of binding affinity in units of concentration. A word on the koff: it is a measure of how fast the partners let go of each other. Higher therefore signals fast dissociation. The term kon denotes a measure of how fast the partners come together. Lower therefore signals slower complex formation.
